These results are taken from patent publication US20150104385A1, “RADIO-PHARMACEUTICAL COMPLEXES” (Algeta ASA, priority 2012, published 2015).

The target in this assay is T1, CD22 (Homo sapiens, UniProt P20273).
T1 construct: host or cells: Raji cells
Put plainly: Binding of AGC1115 and AGC1100 to CD22-positive Raji cells by flow cytometry. The following applies: flow cytometry MFI, 1.5 h at 4° C., four-parameter fit, read-out: EC50 of fitted titration curve (binding potency). On the procedure:
Binding of AGC1115 and AGC1100 (anti-human CD22, Immunomedics; hLL2, #1003164, 10 mg/ml) to CD22-positive Raji cells (ATCC, #CCL-86) was analysed by flow cytometry. The EC50 value determined from the fitted curve was used for comparison of the antibody versus the antibody conjugate binding potency. This analysis was used to confirm that antibody conjugate binding potency to CD22 was unaffected by the conjugation procedure.
Raji cells were grown in RPMI 1640 (PAA; #E15-840) in the presence of 10% fetal bovine serum (FBS) and 1% penicillin/streptomycin. For the flow cytometry analysis 50 ml cell culture was harvested by centrifugation at 4° C. for 5 min at 340×g. […] Subsequently, 20 μl of the preparation of resuspended cells was diluted 1:500 in Coulter Isoton II Diluent, and counted using Beckman Coulter Z2 instrumentation (Beckman Coulter; CA, USA). […]
AGC1115 and AGC1100 was diluted to 50 μg/ml and titrated in twelve points in 3-fold dilution steps. […] All samples were analysed in a V-shaped bottom 96-well plate. Fluorescent signal was recorded on a Beckman Coulter Cell Lab Quanta SC MPL flow cytometer (Beckman Coulter; CA, USA). […]
Data was fitted using the “log(agonist) vs. response—Variable slope (four parameters)” binding model in Graph Pad Prism (PrismSoftware; CA, USA) and the EC50 values was calculated from the fit (FIG. 2).
Background: Flow cytometry measures light scatter and fluorescence of single cells or particles in a stream.

As to “AGC1100: anti-CD22 monoclonal antibody hLL2, also called epratuzumab”, the EC50 is 9 nM.
